Laboratory results from US20090203886A1 (OSAKA UNIVERSITY, published 2009).
Each block holds one molecule with its values, some of them ahead of it.

Tests used:
human CD20 antigen [1] = biological target: T1, human CD20 antigen (human, UniProt P11836 1-297); test: Scatchard analysis on Raji cells, FITC secondary antibody fluorescence (Example 2)
T1 sequence (looked up): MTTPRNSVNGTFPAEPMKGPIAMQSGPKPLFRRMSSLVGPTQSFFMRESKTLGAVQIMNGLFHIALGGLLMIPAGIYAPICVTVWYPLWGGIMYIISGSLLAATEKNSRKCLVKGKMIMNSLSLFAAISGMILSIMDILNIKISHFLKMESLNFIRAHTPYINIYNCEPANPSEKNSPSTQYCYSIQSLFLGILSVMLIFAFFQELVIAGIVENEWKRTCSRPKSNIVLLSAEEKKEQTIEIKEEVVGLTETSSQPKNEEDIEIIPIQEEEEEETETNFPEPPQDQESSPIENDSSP
Method: The mixture was shaken for one hour at room temperature while shielding against light and primary antibodies binding to cells were detected. After the reaction, the mixture was centrifuged at 3,000 rpm for three minutes and the cells were recovered. The cells were suspended in 200 μl of PBS to remove unreacted FITC-labeled anti murine IgG (H&L) antibody remaining on the cell surface and then centrifuged at 3,000 rpm for three minutes to remove the supernatant. This operation was repeated twice.
After the detection step, the image was digitized using image analysis software Image Quant (Amersham Bioscience) and analyzed using Excel (Microsoft). Background values for the plate, the PBS solution and FITC-labeled secondary antibody displaying non-specific binding to cells were determined. Then a value for the reaction only between the cells and the FITC-labeled secondary antibodies was obtained. Average values for those four points were subtracted from the fluorescent intensity value for each sample in order to obtain the amount of fluorescence of cell-conjugated FITC-labeled secondary antibody. A standard curve was prepared by measuring the amount of fluorescence at various concentrations of control cell-conjugated FITC-labeled secondary antibodies. Thus the amount of cell-conjugated secondary antibody (number of moles or weight) was calculated. The amount of cell-conjugated primary antibody was calculated assuming that each primary antibody and the FITC-labeled secondary antibody react at a ratio of 1:2. Primary antibody in suspension was calculated by subtracting the cell-conjugated amount from the added amount. When calculating the antibody concentration as a molar concentration, the molecular weight of the monoclonal was taken to be 150,000.
Scatchard analysis was used to calculate the antigen number and dissociation constant (Kd value) refer to Scatchard, G.; Ann. N.Y. Acad.

human CD20 antigen [2] = biological target: T1, human CD20 antigen; test: cell-based or functional assay
human CD20 antigen [3] = biological target: T1, human CD20 antigen; test: cell-based or functional assay; remark: listed apart in the source
human CD20 antigen [4] = biological target: T1, human CD20 antigen; test: cell-based or functional assay; remark: listed apart in the source

Kd (human CD20 antigen [1]): 6.79 nM
Cell growth inhibiting test on Raji cells, Absorption (492 nm) (absorbance 492 nm) (human CD20 antigen [2]): 1.76
Molecule: 2B8 murine anti CD20 antibody (positive control)

Cell growth inhibiting test on Raji cells, Absorption (492 nm) (human CD20 antigen [3]): 1.79 absorbance 492 nm
Capacity to Induce Apoptosis (Raji cells) (human CD20 antigen [4]): 160
Kd (human CD20 antigen [1]): 1.7 nM
B1: 1K1791 murine anti CD20 monoclonal antibody (antibody, V domains shown)
VH: QIQLVQSGPELKKPGETVKISCKASGYTFTNFGVNWVKQAPGKGLKWMGWINTYTGEPSYADDFKGRFAFSLEASANTAYLQINNLKNDDMSTYFCTRRTNYYGTSYYYAMDYWGQGTSVTVSS
VL: STVMTQTPKFLLVSAGDRVTITCKASQSVSNDVAWYQQKPGQSPKVLIYFASNRYTGVPDRFTGSGYGTDFTFTINTVQAEDLAVYFCQQDYSSPLTFGAGTKLELK
notes: also called m1791
